# Molecular target: StAR (UniProt P51557)
# Assay: co-immunoprecipitation and western blot
# Conditions: reference: wild-type 14-3-3γ; sites S71
substance,measurement,value
14-3-3γ (from UniProt P61982) S71A 14-3-3γ,binding against the reference,weaker
